Measurements taken from PMC2120156 (The Journal of Cell Biology, 1994).

B1: MBPVinc8 (maltose binding protein fused to vinculin tail residues 809-1063) (domain or fragment)
chain: SDPGLQKSFLDSGYRILGAVAKVREAFQPQEPDFPPPPPDLEHLHLTDELAPPKPPLPEGEVPPPRPPPPEEKDEEFPEQKAGEAINQPMMMAARQLHDEARKWSSKGNDIIAAAKRMALLMAEMSRLVRGGSGNKRALIQCAKDIAKASDEVTRLAKEVAKQCTDKRIRTNLLQVCERIPTISTQLKILSTVKATMLGRTNISDEESEQATEMLVHNAQNLMQSVKETVREAEAASIKIRTDAGFTLRWVRKTP
B2: gizzard vinculin (intact, 116 kD) (natural protein)
chain: MPVFHTRTIESILEPVAQQISHLVIMHEEGEVDGKAIPDLTAPVSAVQAAVSNLVRVGKETVQTTEDQILKRDMPPAFIKVENACTKLVRAAQMLQADPYSVPARDYLIDGSRGILSGTSDLLLTFDEAEVRKIIRVCKGILEYLTVAEVVETMEDLVTYTKNLGPGMTKMAKMIDERQQELTHQEHRVMLVNSMNTVKELLPVLISAMKIFVTTKNTKSQGIEEALKNRNFTVEKMSAEINEIIRVLQLTSWDEDAWASKDTEAMKRALALIDSKMNQAKGWLRDPNAPPGDAGEQAIRQILDEAGKAGELCAGKERREILGTCKTLGQMTDQLADLRARGQGATPMAMQKAQQVSQGLDLLTAKVENAARKLEAMTNSKQAIAKKIDAAQNWLADPNGGSEGEEHIRGIMSEARKVAELCEEPKERDDILRSLGEISALTAKLSDLRRHGKGDSPEARALAKQIATSLQNLQSKTNRAVANTRPVKAAVHLEGKIEQAQRWIDNPTVDDRGVGQAAIRGLVAEGRRLANVMMGPYRQDLLAKCDRVDQLAAQLADLAARGEGESPQARAIAAQLQDSLKDLKARMQEAMTQEVSDVFSDTTTPIKLLAVAATAPSDTPNREEVFEERAANFENHAARLGATAEKAAAVGTANKTTVEGIQATVKSARELTPQVVSAARILLRNPGNQAAYEHFETMKNQWIDNVEKMTGLVDEAIDTKSLLDASEEAIKKDLDKCKVAMANMQPQMLVAGATSIARRANRILLVAKREVENSEDPKFREAVKAASDELSKTISPMVMDAKAVAGNISDPGLQKSFLDSGYRILGAVAKVREAFQPQEPDFPPPPPDLEHLHLTDELAPPKPPLPEGEVPPPRPPPPEEKDEEFPEQKAGEAINQPMMMAARQLHDEARKWSSKGNDIIAAAKRMALLMAEMSRLVRGGSGNKRALIQCAKDIAKASDEVTRLAKEVAKQCTDKRIRTNLLQVCERIPTISTQLKILSTVKATMLGRTNISDEESEQATEMLVHNAQNLMQSVKETVREAEAASIKIRTDAGFTLRWVRKTPWYQ

Biological target: filamentous actin (F-actin) from rabbit skeletal muscle (rabbit, UniProt P68135 1-377)
Assay: co-sedimentation

| Binder | stoichiometry N |
| --- | --- |
| B1 | 1.18 mol MBPVinc8 per mol actin |
| B2 | 0.5 mol vinculin per mol actin |
